PMC9585516, “In Vitro Demonstration of Human Lipoyl Synthase Catalytic Activity in the Presence of NFU1” (ACS Bio & Med Chem Au, 2022)

B1: human lipoyl synthase (LIAS), amino acids 28-372, holo form (enzyme)
chain: GHLSSLPDKKKELLQNGPDLQDFVSGDLADRSTWDEYKGNLKRQKGERLRLPPWLKTEIPMGKNYNKLKNTLRNLNLHTVCEEARCPNIGECWGGGEYATATATIMLMGDTCTRGCRFCSVKTARNPPPLDASEPYNTAKAIAEWGLDYVVLTSVDRDDMPDGGAEHIAKTVSYLKERNPKILVECLTPDFRGDLKAIEKVALSGLDVYAHNVETVPELQSKVRDPRANFDQSLRVLKHAKKVQPDVISKTSIMLGLGENDEQVYATMKALREADVDCLTLGQYMQPTRRHLKVEEYITPEKFKYWEKVGNELGFHYTASGPLVRSSYKAGEFFLKNLVAKRKTKDL
notes: Gly-His N-terminal appendage left after removal of the His6-SUMO tag; Holo form with two [4Fe-4S] clusters; also called holo-LIAS; source: E. coli BL21 (DE3) with pDB1282, purified under anoxic conditions (Ni-IMAC, SUMO tag removed with ULP1, SEC); not shown: His6, N-terminal, cleaved; SUMO, N-terminal, cleaved
B2: human NFU1, amino acids 59-254, holo form (domain or fragment)
chain: GHMFIQTQDTPNPNSLKFIPGKPVLETRTMDFPTPAAAFRSPLARQLFRIEGVKSVFFGPDFITVTKENEELDWNLLKPDIYATIMDFFASGLPLVTEETPSGEAGSEEDDEVVAMIKELLDTRIRPTVQEDGGDVIYKGFEDGIVQLKLQGSCTSCPSSIITLKNGIQNMLQFYIPEVEGVEQVMDDESDEKEANSP
notes: Gly-His N-terminal appendage left after removal of the His6-SUMO tag; NFU1, human, Q9UMS0 (full length 1-254), N-terminally truncated variant, amino acids 59-254; Holo form with a [4Fe-4S] cluster; also called holo-NFU1; NFUI; source: E. coli BL21 (DE3) with pDB1282, purified under anoxic conditions (Ni-IMAC, SUMO tag removed with ULP1, SEC); not shown: His6, N-terminal, cleaved; SUMO, …

Assays:
[1] = target: B2; assay: SEC; HiPrep 16/60 Sephacryl HR S-200 in an anaerobic glovebox, 0.5 mL/min; 50 mM HEPES pH 7.5, 250 mM KCl, 10% glycerol, 2.5 mM TCEP, 10 mM BME; holo-LIAS alone (100 uM), holo-NFU1 alone (200 uM) and a 1:1 mixture; masses from a calibration curve; peak fractions checked by SDS-PAGE; settings: both partners purified
[2] = target: B1; assay: ITC; 2 uL injections of LIAS (150 uM, syringe) into NFU1 (19 uM, cell) at 27 °C, anaerobic; 0.1 M HEPES pH 7.5, 0.5 M KCl, 5% glycerol, 2 mM TCEP; settings: both partners purified

| stoichiometry N [1] | Kd [2] [nM] | Binder |
| --- | --- | --- |
| 1 |  | B1 |
|  | 700 ± 200 | B2 |
